Results: patent US9976167B2, “Group of glycosyltransferases and use thereof” (Shanghai Institutes For Biological Sciences, Chinese …, priority 2012, dated 2018)

B1: 3GT1: glycosyltransferase protein with 495 amino acids, SEQ ID NO.: 22; homology with UGT73C10 of Barbarea vulgaris higher than 99% (protein, listed as Barbarea vulgaris)
chain: MVSEITHKSYPLHFVLFPFMAQGHMIPMVDIARLLAQRGVKITIVTTPHNAARFENVLSRAIESGLPISIVQVKLPSQEAGLPEGNETFDSLVSTKLLVPFFKAVNMLEEPVQKLFEEMSPQPSCIISDFCLPYTSKIAKKFNIPKILFHGMCCFCLLCMHVLRKNREILENLKSDKEHFVVPYFPDRVEFTRPQVPLATYVPGEWHEIKEDMVEADKTSYGVIVNTYQELEPAYANGYKEARSGKAWTIGPVSLCNKVGADKAERGNKADIDQDECLKWLDSKEEGSVLYVCLGSICSLPLSQLKELGLGLEESQRPFIWVVRGWEKNKELLEWFSESGFEERVKDRGLLIKGWSPQMLILAHHSVGGFLTHCGWNSTLEGITSGVPLLTWPLFGDQFCNQKLVVQVLKVGVSAGVEEVTNWGEEEKIGVLVDKEGVKKAVEELMGESDDAKEIRKRVKELGQLAHKAVEEGGSSHSNITSLLEDIMQLAQPNN
modifications: 3GT1
B2: 3GT3: glycosyltransferase protein with 497 amino acids, SEQ ID NO.: 41; homology with a Medicago truncatula glycosyltransferase higher than 99% (protein, listed as Medicago truncatula)
chain: MEGVEVEQPLKVYFIPFLASGHMIPLFDIATMFASRGQQVTVITTPANAKSLTKSLSSDAPSFLRLHTVDFPSQQVGLPEGIESMSSTTDPTTTWKIHTGAMLLKEPIGDFIENDPPDCIISDSTYPWVNDLADKFQIPNITFNGLCLFAVSLVETLKTNNLLKSQTDSDSDSSSFVVPNFPHHITLCGKPPKVIGIFMGMMLETVLKSKALIINNFSELDGEECIQHYEKATGHKVWHLGPTSLIRKTAQEKSERGNEGAVNVHESLSWLDSERVNSVLYICFGSINYFSDKQLYEMACAIEASGHPFIWVVPEKKGKEDESEEEKEKWLPKGFEERNIGKKGLIIRGWAPQVKILSHPAVGGFMTHCGGNSTVEAVSAGVPMITWPVHGDQFYNEKLITQFRGIGVEVGATEWCTSGVAERKKLVSRDSIEKAVRRLMDGGDEAENIRLRAREFGEKAIQAIQEGGSSYNNLLALIDELKRSRDLKRLRDLKLDD
modifications: 3GT3
B3: 3GT2: glycosyltransferase protein with 495 amino acids, SEQ ID NO.: 24; homology with UGT73C12 of Barbarea vulgaris higher than 99% (protein, listed as Barbarea vulgaris)
chain: MVSEITHKSYPLHFVLFPFMAQGHMIPMVDIARLLAQRGVKITIVTTPHNAARFKNVLSRAIESGLPISIVQVKLPSQEAGLPEGNETLDSLVSMELMIHFLKAVNMLEEPVQKLFEEMSPQPSCIISDFCLPYTSKIAKKFNIPKILFHGMCCFCLLCMHILRKNREIVENLKSDKEHFVVPYFPDRVEFTRPQVPVATYVPGDWHEITEDMVEADKTSYGVIVNTYQELEPAYANDYKEARSGKAWTIGPVSLCNKVGADKAERGNKADIDQDECLKWLNSKEEGSVLYVCLGSICNLPLSQLKELGLGLEESQRPFIWVIRGWEKNKELHEWFSESGFEERIKDRGLLIKGWAPQMLILSHHSVGGFLTHCGWNSTLEGLTAGLPLLTWPLFADQFCNEKLAVQVLKAGVSAGVDQPMKWGEEEKIGVLVDKEGVKKAVEELMGESDDAKEIRRRAKELGELAHKAVEEGGSSHSNITSLLEDIMQLAQSNN
modifications: 3GT2

What was measured:
[1] = test system: osteoclasts; details: cited from earlier work
[2] = test system: prostate cancer cells; details: cited from earlier work
[3] = Glycosyltransfering reaction with crude enzyme, substrate F1; format: biochemical; details: 35° C., 12 hrs, TLC; for glycosylation of C3-OH of F1 (product 3-O-β-(D-glucopyranosyl)-F1): crude enzyme of Example 11; for substrate that could be catalyzed: F1: crude enzyme: lysate supernatant of recombinant E. coli, UDP-glucose
Experimental: (§1) According to the method as in Example 4, the cell lysate of recombinant yeasts expressing gGT13 and gGT30 were used to catalyze PPD and PPT.
(§2) The lysis supernatant of recombinant E. coli expressing empty vectors was used as control. The 100 μL reaction system is shown as Table 3. The reaction was conducted under 35° C. for 12 hrs, then stopped by adding 100 μL of butanol. The product were extracted, dried in vacuum, and dissolved in methanol.

[4] = Glycosyltransfering reaction with crude enzyme, substrate lanosterol; format: biochemical; details: 35° C., 12 hrs, TLC; for glycosylation of C3-OH of lanosterol (product 3-O-β-(D-glucopyranosyl)-lanosterol): crude enzyme of Example 11; for substrate that could be catalyzed: lanosterol: crude enzyme: lysate supernatant of recombinant E. coli, UDP-glucose
Experimental: as §2, with “The glycosyltransfering reactions of ginsenosides and ginsengenins were catalyzed by using the lysis supernatant of the recombinant yeasts expressing 3GT1, 3GT2, 3GT3 and 3GT4 as crude enzymes. The lysis” for “The lysis”

[5] = Glycosyltransfering reaction with crude enzyme, substrate CK; format: biochemical; details: 35° C., 12 hrs, TLC; for glycosylation of C3-OH of CK (product F2): crude enzyme of Example 11; for substrate that could be catalyzed: CK: crude enzyme: lysate supernatant of recombinant E. coli, UDP-glucose
Experimental: as §1
as §2, with “The glycosyltransfering reactions of ginsenosides and ginsengenins were catalyzed by using the lysis supernatant of the recombinant yeasts expressing 3GT1, 3GT2, 3GT3 and 3GT4 as crude enzymes. The lysis” for “The lysis”

[6] = Glycosyltransfering reaction with crude enzyme, substrate PPT; format: biochemical; details: crude enzyme: lysate supernatant of recombinant E. coli; UDP-glucose, 35° C., 12 hrs; TLC
[7] = Glycosyltransfering activities on ginsengenins and saponins: glycosylation site and specificity (summary); format: biochemical; details: for effect of the steric configuration of the hydroxyl or glycosyl at C20 on catalytic activity: 20(S)-type versus 20(R)-type substrates; for glycosylation site: C-3: Table 2, tetracyclic triterpenoid substrates; for substrate spectrum / specificity: comparison of 3GT1, 3GT2, 3GT3 and 3GT4, Table 6
Experimental: More than 100 predicted cDNA sequences of glycosyltransferases were extracted from the published expression profile data of the Panax plant. 60 cDNAs with full length were cloned, expressed, and subjected to the analysis of glycosyltransfering reaction.
(§3) The lysate supernatant of the recombinant yeasts expressing the empty vector was used as control.
(§4) The reaction was conducted under 35° C. for 12 hrs, then stopped by adding 100 μL of butanol. The product were extracted, dried in vacuum, and dissolved in methanol.
as §2, with “The glycosyltransfering reactions of ginsenosides and ginsengenins were catalyzed by using the lysis supernatant of the recombinant yeasts expressing 3GT1, 3GT2, 3GT3 and 3GT4 as crude enzymes. The lysis” for “The lysis”
The lysate supernatant of the recombinant yeast expressing empty vectors was used as control. The reaction was conducted under 35° C. for 12 hrs, and then stopped by adding 100 μL of butanol. The product were extracted, dried in vacuum, and dissolved in methanol.
(§5) The glycosyltransfering reactions of ginsenosides Rh2 and F2 were catalyzed by using the lysate supernatant of the recombinant yeasts expressing 3GT1, 3GT2, 3GT3 and 3GT4 as crude enzymes. The 100 μL reaction system is shown as Table 3. The reaction was conducted under 35° C. for 12 hrs, and then stopped by adding 100 μL of butanol. The product were extracted, dried in vacuum, and dissolved in methanol.

[8] = Glycosyltransfering reaction with crude enzyme, substrate 25-OH-PPD; format: biochemical; details: 35° C., 12 hrs, TLC; for glycosylation of C3-OH of 25-OH-PPD (product 3-O-β-(D-glucopyranosyl)-25-OH-PPD): crude enzyme of Example 11; for substrate that could be catalyzed: 25-OH-PPD: crude enzyme: lysate supernatant of recombinant E. coli, UDP-glucose
Experimental: as §5, with “ginsenosides” for “ginsenosides Rh2”, “ginsengenins” for “F2”, “lysis” for “lysate”, “enzymes. The lysis supernatant of recombinant E. coli expressing empty vectors was used as control.” for “enzymes.”, “hrs,” for “hrs, and”

[9] = Glycosyltransfering reaction with crude enzyme, substrate PPT; format: biochemical; details: crude enzyme of Example 11; 35° C., 12 hrs; TLC
Experimental: as §3, §4
(§6) The reaction products were first detected by thin layer chromatography (TLC).
(§7) The converted products of gGT25 were further identified by HPLC (FIG. 10 and FIG. 11). The retention time of peak 2 was identical to that of the CK standard sample; the retention time of peak 3 was identical to that of PPD. […] Peak 1, also present in the profile of the negative control, indicated its irrelevance to the conversion of PPD. 3 peaks were shown in FIG. 11, the retention time of peak 1 was identical to that of F1 standard sample and peak 3 was identical to that of PPT. […] Peak 2, also present in the profile of the negative control, indicated its irrelevance to the conversion of PPT.
as §1
as §5, with “ginsenosides” for “ginsenosides Rh2”, “ginsengenins” for “F2”, “lysis” for “lysate”, “enzymes. The lysis supernatant of recombinant E. coli expressing empty vectors was used as control.” for “enzymes.”, “hrs,” for “hrs, and”

[10] = Glycosyltransfering reaction with crude enzyme, substrate DM; format: biochemical; details: 35° C., 12 hrs, TLC; for glycosylation of C3-OH of DM (product 3-O-β-(D-glucopyranosyl)-Dammarenediol II): crude enzyme of Example 11; for substrate that could be catalyzed: DM: crude enzyme: lysate supernatant of recombinant E. coli, UDP-glucose
Experimental: as §3, §4, §6
as §5, with “ginsenosides” for “ginsenosides Rh2”, “ginsengenins” for “F2”, “lysis” for “lysate”, “enzymes. The lysis supernatant of recombinant E. coli expressing empty vectors was used as control.” for “enzymes.”, “hrs,” for “hrs, and”

[11] = Glycosyltransfering reaction with crude enzyme, substrate 20(R)-PPD; format: biochemical; details: 35° C., 12 hrs, TLC; for catalysis of 20(R)-PPD (product 20(R)-ginsenoside Rh2): crude enzyme of Example 11; for substrate that could be catalyzed: 20(R)-PPD: crude enzyme: lysate supernatant of recombinant E. coli, UDP-glucose
[12] = Glycosyltransfering reaction with crude enzyme, substrate PPD; format: biochemical; details: crude enzyme: lysate supernatant of recombinant E. coli; UDP-glucose, 35° C., 12 hrs; TLC
Experimental: as §3, §4, §6, §7, §1
The cell lysis supernatant of the recombinant E. coli was used as crude enzyme to conduct the glycosyltransfering reaction, and the reaction condition was identical to that of Example 4.
The reaction was conducted under 35° C. for 12 hrs. 100 μL of butanol was added to stop the reaction and the products were extracted. Upon vacuum drying, the product was dissolved by methanol. TLC was first used to detect the reaction product.
as §5, with “ginsenosides” for “ginsenosides Rh2”, “ginsengenins” for “F2”, “lysis” for “lysate”, “enzymes. The lysis supernatant of recombinant E. coli expressing empty vectors was used as control.” for “enzymes.”, “hrs,” for “hrs, and”
The reaction was conducted under 35° C. for 12 hrs, and then stopped by adding 100 μL of butanol. The product were extracted, dried in vacuum, and dissolved in methanol. The reaction products were first detected by thin layer chromatography (TLC) (FIG. 35).

Molecule	glycosylation of C3-OH of F1 (product 3-O-β-(D-glucopyranosyl)-F1) [3]	substrate that could be catalyzed: F1 [3]	glycosylation of C3-OH of lanosterol (product 3-O-β-(D-glucopyranosyl)-lanosterol) [4]	substrate that could be catalyzed: lanosterol [4]	glycosylation of C3-OH of CK (product F2) [5]	substrate that could be catalyzed: CK [5]	substrate that could be catalyzed: PPT [6]	effect of the steric configuration of the hydroxyl or glycosyl at C20 on catalytic activity [7]	glycosylation site: C-3 [7]	substrate spectrum / specificity [7]	glycosylation of C3-OH of 25-OH-PPD (product 3-O-β-(D-glucopyranosyl)-25-OH-PPD) [8]	substrate that could be catalyzed: 25-OH-PPD [8]	glycosylation of C3-OH of PPT (product 3-O-β-(D-glucopyranosyl)-PPT) [9]	glycosylation of C3-OH of DM (product 3-O-β-(D-glucopyranosyl)-Dammarenediol II) [10]	substrate that could be catalyzed: DM [10]	catalysis of 20(R)-PPD (product 20(R)-ginsenoside Rh2) [11]	substrate that could be catalyzed: 20(R)-PPD [11]	substrate that could be catalyzed: PPD [12]	other results
CC(C)=CCC[C@@](C)(O)[C@H]1CC[C@]2(C)[C@@H]1[C@H](O)C[C@@H]1[C@@]3(C)CC[C@H](O[C@@H]4O[C@H](CO)[C@@H](O)[C@H](O)[C@H]4O)C(C)(C)[C@@H]3CC[C@]12C [R-type ginsenoside Rh2, 3-O-β-(D-glucopyranosyl)-20(R)-protopanaxadiol]	–	–	–	–	–	–	–	–	–	–	–	–	–	–	–	–	–	–	cytotoxicity to osteoclasts [1]: without any cytotoxicity; inhibition of the generation of osteoclasts [1]: selectively inhibit; inhibition of prostate cancer cells [2]: quite poor
B1	could be glycosylated	✓	could be glycosylated	✓	further glycosylating its C3-OH	✓	✓	not affected	✓	most number of substrates	could be glycosylated	✓	could be glycosylated	could be glycosylated	✓	could catalyze	✓	✓	–
B2	–	–	–	–	further glycosylating its C3-OH	–	✓	–	✓	least number of substrates	could be glycosylated	✓	could be glycosylated	–	–	–	–	✓	–
B3	could be glycosylated	✓	could be glycosylated	✓	further glycosylating its C3-OH	✓	✓	not affected	✓	most number of substrates	could be glycosylated	✓	could be glycosylated	could be glycosylated	✓	could catalyze	✓	✓	–
